Experimental data published in article doi:10.1101/2023.06.21.545984.

Tests used:
[1] = target: Acinetobacter baumannii 118362 Family 2A encapsulin shell protein (J517_0527) (Acinetobacter baumannii 118362); assay: cryo-EM structure
[2] = target: degraded free cysteine desulfurase that has lost the N-terminal CLD (Acinetobacter baumannii 118362); assay: SEC
[3] = target: free Acinetobacter baumannii 118362 cysteine desulfurase (construct RB30, C-terminally His6-tagged, tag removed) (Acinetobacter baumannii 118362); assay: SEC

Substance: Acinetobacter baumannii 118362 Family 2A encapsulin shell protein (J517_0527) (natural protein)
- stoichiometry N [1]: 60 subunits

Substance: degraded free cysteine desulfurase that has lost the N-terminal CLD (domain or fragment)
- stoichiometry N [2]: 2

Substance: Acinetobacter baumannii 118362 cysteine desulfurase (J517_0528), co-expressed from the four-gene operon (enzyme)
- stoichiometry N (CD cargo proteins per encapsulin shell) [1]: < 24

Substance: free Acinetobacter baumannii 118362 cysteine desulfurase (construct RB30, C-terminally His6-tagged, tag removed) (enzyme)
- stoichiometry N [3]: 2
